Assay results published in publication PMC4303546 (Cell reports, 2014).

Target: GATOR2 purified from HEK293T cells (UniProt Q9NXC5 1-875; Q6PJI9 1-974; Q96S15 1-790; Q96EE3 1-360; P55735 1-322)
Assay: pull-down

- binding result: binds
B1: GST-Sesn2 (natural protein, UniProt P58004 1-480, looked up)
chain: MIVADSECRAELKDYLRFAPGGVGDSGPGEEQRESRARRGPRGPSAFIPVEEVLREGAESLEQHLGLEALMSSGRVDNLAVVMGLHPDYFTSFWRLHYLLLHTDGPLASSWRHYIAIMAAARHQCSYLVGSHMAEFLQTGGDPEWLLGLHRAPEKLRKLSEINKLLAHRPWLITKEHIQALLKTGEHTWSLAELIQALVLLTHCHSLSSFVFGCGILPEGDADGSPAPQAPTPPSEQSSPPSRDPLNNSGGFESARDVEALMERMQQLQESLLRDEGTSQEEMESRFELEKSESLLVTPSADILEPSPHPDMLCFVEDPTFGYEDFTRRGAQAPPTFRAQDYTWEDHGYSLIQRLYPEGGQLLDEKFQAAYSLTYNTIAMHSGVDTSVLRRAIWNYIHCVFGIRYDDYDYGEVNQLLERNLKVYIKTVACYPEKTTRRMYNLFWRHFRHSEKVHVNLLLLEARMQAALLYALRAITRYMT
